Laboratory results taken from PMC6981440 (International Journal of Molecular Sciences, 2019).

What was measured:
[1] = molecular target: mouse anti-GM1 IgG2b(κ) antibody GB2 (mouse); experiment: high-speed atomic force microscopy; antibody at 10 μg/mL in phosphate-buffered saline, 3 min on a mica-supported DOPC bilayer with GM1 (rings at >25% GM1; 50% GM1 in Figure 4), unbound antibody washed off; room temperature
[2] = molecular target: the molecule itself; experiment: crystal structure; apo Fc of GB2; 16% PEG3350, 0.2 M lithium chloride, 0.1 M Bis-Tris pH 6.5, 20 °C; P2(1)2(1)2(1), three Fc dimers per asymmetric unit, 2.30 Å

mouse anti-GM1 IgG2b(κ) antibody GB2
stoichiometry N [1]: 6

B1: Fc fragment of GB2 (mouse IgG2b-Fc, apo form) (domain or fragment)
chain: CPAPNLEGGPSVFIFPPNIKDVLMISLTPKVTCVVVDVSEDDPDVQISWFVNNVEVHTAQTQTHREDYNSTIRVVSTLPIQHQDWMSGKEFKCKVNNKDLPSPIERTISKIKGLVRAPQVYILPPPAEQLSRKDVSLTCLVVGFNPGDISVEWTSNGHTEENYKDTAPVLDSDGSYFIYSKLNMKTSKWEKTDSFSCNVRHEGLKNYYLKKTISRSPG
notes: Fc fragment of the mouse IgG2b heavy chain of GB2, cut by papain; Fc dimer; three Fc dimers per asymmetric unit in the crystal; also called apo Fc; source: papain digestion of GB2 from mouse hybridoma, purified (Affi-gel protein A column)
stoichiometry N [2]: 3
